Laboratory results published in US20190345535.
“And” between values parts separate entries of the source, which are not always exact repeats. Equal values may be shown once.

What was measured:
[1] = system: GFP^2-Pflu-H3-RLuc2 fusion protein
[2] = system: GFP^2-Pflu3-RLuc2 fusion protein (Pflu sensor 3)
[3] = system: GFP^2-plas1-RLuc2 fusion protein (BRET^2 plasmin sensor)
[4] = system: GFP^2-Pflu-H1-RLuc2 fusion protein
[5] = system: GFP^2-Pflu-H4-RLuc2 fusion protein
[6] = system: GFP^2-Pflu1-RLuc2 fusion protein (Pflu sensor 1)
[7] = system: GFP^2-Pflu2-RLuc2 fusion protein (Pflu sensor 2)
[8] = system: GFP^2-Pflu-H2-RLuc2 fusion protein

crude bacterial protease from Pseudomonas fluorescens strain 65
BRET^2 response to 1 nM bacterial protease in buffer, 10 minutes [1]: 89.7% | Bacterial protease response (%), BRET^2, 1 nM in UHT milk [1]: 36.3% | More responsive to 1 nM bacterial protease compared to Pflu H1 sensor, buffer [1]: 82% | More responsive to 1 nM bacterial protease compared to Pflu H2 sensor, buffer [1]: 182% | More responsive to 1 nM bacterial protease compared to Pflu H4 sensor, buffer [1]: 39% | Selectivity (ratio of Bacterial protease response to Plasmin response), UHT milk [1]: 40.3 | Selectivity for bacterial protease over bovine plasmin, protease concentration by BSA standard [1]: 32 fold | Selectivity for bacterial protease over bovine plasmin, raw milk [1]: 376 fold | Selectivity for bacterial protease over human plasmin [2]: 563 fold | Selectivity for bacterial protease over human plasmin, protease concentration by BSA standard [2]: 48.5 fold | Linear range (10%-90% BRET^2 response), 50% full fat UHT milk [3]: 10 nM and 90 nM | Linear range (10%-90% BRET^2 response), 50% full fat UHT milk, protease concentration by BSA standard [3]: 116 nM and 1040 nM | Selectivity for bacterial protease over bovine plasmin [3]: 2 fold | Selectivity for bacterial protease over bovine plasmin, protease concentration by BSA standard [3]: 0.2 fold | Selectivity for bacterial protease over human plasmin [3]: 0.1 fold | Selectivity for bacterial protease over human plasmin, protease concentration by BSA standard [3]: 0.01 fold | BRET^2 response to 1 nM bacterial protease in buffer, 10 minutes [4]: 49.5% | Bacterial protease response (%), BRET^2, 1 nM in UHT milk [4]: 6.7% | Selectivity (ratio of Bacterial protease response to Plasmin response), UHT milk [4]: 1.3 | BRET^2 response to 1 nM bacterial protease in buffer, 10 minutes [5]: 64.5% | Bacterial protease response (%), BRET^2, 1 nM in UHT milk [5]: 17.1% | Selectivity (ratio of Bacterial protease response to Plasmin response), UHT milk [5]: 2.7 | Reduction in the BRET ratio, 1 nM protease, UHT milk, 10 minutes [6]: 80.6% reduction in the BRET ratio with strain 65 bacterial proteases | Reduction in the BRET ratio, 1 nM protease, buffer, 10 minutes [6]: 95% reduction in the BRET ratio | Selectivity for bacterial protease over bovine plasmin [6]: 238 fold | Selectivity for bacterial protease over bovine plasmin, protease concentration by BSA standard [6]: 20 fold | Selectivity for bacterial protease over human plasmin [6]: 174 fold | Selectivity for bacterial protease over human plasmin, protease concentration by BSA standard [6]: 15 fold | Sensitivity to bacterial proteases relative to the plasmin sensor, raw milk, 10 minute incubation [6]: 10× more sensitive | Linear range (10%-90% BRET^2 response), 50% full fat UHT milk, protease concentration by BSA standard [7]: 6.7 nM and 13.8 nM | Selectivity for bacterial protease over human plasmin [7]: 353 fold | Selectivity for bacterial protease over human plasmin, protease concentration by BSA standard [7]: 30 fold | BRET^2 response to 1 nM bacterial protease in buffer, 10 minutes [8]: 31.9% | Bacterial protease response (%), BRET^2, 1 nM in UHT milk [8]: 6.6% | Selectivity (ratio of Bacterial protease response to Plasmin response), UHT milk [8]: 0.8

crude bacterial protease from Pseudomonas fluorescens strain 117
Reduction in the BRET ratio, 1 nM protease, UHT milk, 10 minutes [6]: 71.2% reduction with the bacterial protease from strain 117 | Reduction in the BRET ratio, 1 nM protease, buffer, 10 minutes [6]: 95% reduction in the BRET ratio
